# Measurements published in the supplement of paper PMC9112550, “Optimization of the antimicrobial peptide Bac7 by deep mutational scanning” (BMC Biology, 2022).
# System: Escherichia coli TOP10
# Assay: shrunken log2 fold change of peptide-encoding DNA abundance (4.5 h post-induction vs induction); higher = less antimicrobial activity (less host growth inhibition)
# Settings: time post-induction: 4.5 h; library: site-saturation at positions 5, 18, 19, 20
# 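Note: peptides expressed intracellularly from a pBAD plasmid library in pooled LB shake-flask culture, induced with 0.3% L-arabinose, DNA abundance read by NGS, three biological replicates, DESeq2 with apeglm shrinkage.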
row,Sequence,shrunken log2 fold change
1,RRIRRRPPRLPRPRPRPPKMPRP,0.286
2,RRIRRRPPRLPRPRPRPPLYPRP,0.851
3,RRIRRRPPRLPRPRPRPPMRPRP,1.03
4,RRIRRRPPRLPRPRPRPPPFPRP,0.938
5,RRIRRRPPRLPRPRPRPPPNPRP,0.951
6,RRIRRRPPRLPRPRPRPPRFPRP,1.17
7,RRIRRRPPRLPRPRPRPPSHPRP,0.586
8,RRIRRRPPRLPRPRPRPPSPPRP,0.875
9,RRIRRRPPRLPRPRPRPQDGPRP,0.106
10,RRIRRRPPRLPRPRPRPQECPRP,-0.0184
11,RRIRRRPPRLPRPRPRPQEIPRP,-0.149
12,RRIRRRPPRLPRPRPRPQENPRP,-0.0472
13,RRIRRRPPRLPRPRPRPQFGPRP,-0.00169
14,RRIRRRPPRLPRPRPRPQGPPRP,0.206
15,RRIRRRPPRLPRPRPRPQHWPRP,0.179
16,RRIRRRPPRLPRPRPRPQKVPRP,0.234
17,RRIRRRPPRLPRPRPRPQLIPRP,-0.0726
18,RRIRRRPPRLPRPRPRPQLLPRP,0.537
19,RRIRRRPPRLPRPRPRPQMGPRP,0.231
20,RRIRRRPPRLPRPRPRPQMVPRP,-0.0843
21,RRIRRRPPRLPRPRPRPQPCPRP,-0.101
22,RRIRRRPPRLPRPRPRPQPSPRP,0.231
23,RRIRRRPPRLPRPRPRPQQTPRP,-0.0146
24,RRIRRRPPRLPRPRPRPQQWPRP,0.0704
25,RRIRRRPPRLPRPRPRPQRPPRP,0.391

row,Sequence,shrunken log2 fold change
1,RRIRRRPPRLPRPRPRPQSLPRP,-0.0788
2,RRIRRRPPRLPRPRPRPQSWPRP,0.519
3,RRIRRRPPRLPRPRPRPQTFPRP,0.264
4,RRIRRRPPRLPRPRPRPQTLPRP,0.101
5,RRIRRRPPRLPRPRPRPQVIPRP,-0.0307
6,RRIRRRPPRLPRPRPRPQVYPRP,-0.0473
7,RRIRRRPPRLPRPRPRPQWDPRP,0.0215
8,RRIRRRPPRLPRPRPRPQYIPRP,0.0837
9,RRIRRRPPRLPRPRPRPRATPRP,0.162
10,RRIRRRPPRLPRPRPRPRCCPRP,0.43
11,RRIRRRPPRLPRPRPRPRCHPRP,0.127
12,RRIRRRPPRLPRPRPRPRCIPRP,0.174
13,RRIRRRPPRLPRPRPRPRCVPRP,0.402
14,RRIRRRPPRLPRPRPRPRELPRP,0.887
15,RRIRRRPPRLPRPRPRPRFVPRP,0.375
16,RRIRRRPPRLPRPRPRPRHCPRP,0.119
17,RRIRRRPPRLPRPRPRPRHRPRP,0.178
18,RRIRRRPPRLPRPRPRPRIEPRP,0.261
19,RRIRRRPPRLPRPRPRPRIMPRP,0.0517
20,RRIRRRPPRLPRPRPRPRIYPRP,-0.0573
21,RRIRRRPPRLPRPRPRPRKCPRP,0.22
22,RRIRRRPPRLPRPRPRPRKKPRP,0.207
23,RRIRRRPPRLPRPRPRPRMEPRP,0.0167
24,RRIRRRPPRLPRPRPRPRNNPRP,-0.204
25,RRIRRRPPRLPRPRPRPRPDPRP,0.855

row,Sequence,shrunken log2 fold change
1,RRIRRRPPRLPRPRPRPRQMPRP,0.313
2,RRIRRRPPRLPRPRPRPRRWPRP,0.386
3,RRIRRRPPRLPRPRPRPRSGPRP,0.751
4,RRIRRRPPRLPRPRPRPRSMPRP,0.468
5,RRIRRRPPRLPRPRPRPRTCPRP,0.477
6,RRIRRRPPRLPRPRPRPRTGPRP,0.476
7,RRIRRRPPRLPRPRPRPRWPPRP,0.598
8,RRIRRRPPRLPRPRPRPRWYPRP,0.092
9,RRIRRRPPRLPRPRPRPRYEPRP,0.0341
10,RRIRRRPPRLPRPRPRPSCEPRP,0.13
11,RRIRRRPPRLPRPRPRPSCPPRP,0.941
12,RRIRRRPPRLPRPRPRPSCQPRP,-0.0699
13,RRIRRRPPRLPRPRPRPSDDPRP,0.209
14,RRIRRRPPRLPRPRPRPSDWPRP,-0.302
15,RRIRRRPPRLPRPRPRPSEWPRP,-0.15
16,RRIRRRPPRLPRPRPRPSEYPRP,-0.192
17,RRIRRRPPRLPRPRPRPSFKPRP,-0.117
18,RRIRRRPPRLPRPRPRPSFWPRP,0.38
19,RRIRRRPPRLPRPRPRPSGKPRP,0.845
20,RRIRRRPPRLPRPRPRPSIQPRP,-0.0217
21,RRIRRRPPRLPRPRPRPSKVPRP,-0.0758
22,RRIRRRPPRLPRPRPRPSMSPRP,0.0591
23,RRIRRRPPRLPRPRPRPSQFPRP,0.0893
24,RRIRRRPPRLPRPRPRPSRDPRP,0.303
25,RRIRRRPPRLPRPRPRPSRYPRP,1.35

row,Sequence,shrunken log2 fold change
1,RRIRRRPPRLPRPRPRPSSNPRP,-0.148
2,RRIRRRPPRLPRPRPRPSSVPRP,0.131
3,RRIRRRPPRLPRPRPRPSSWPRP,-0.162
4,RRIRRRPPRLPRPRPRPSTKPRP,0.068
5,RRIRRRPPRLPRPRPRPSTMPRP,-0.467
6,RRIRRRPPRLPRPRPRPSTYPRP,-0.418
7,RRIRRRPPRLPRPRPRPSVDPRP,0.168
8,RRIRRRPPRLPRPRPRPSWEPRP,0.1
9,RRIRRRPPRLPRPRPRPSWVPRP,-0.223
10,RRIRRRPPRLPRPRPRPSYNPRP,-0.16
11,RRIRRRPPRLPRPRPRPTALPRP,0.554
12,RRIRRRPPRLPRPRPRPTCEPRP,0.295
13,RRIRRRPPRLPRPRPRPTDNPRP,0.277
14,RRIRRRPPRLPRPRPRPTDWPRP,0.414
15,RRIRRRPPRLPRPRPRPTGAPRP,0.633
16,RRIRRRPPRLPRPRPRPTGFPRP,0.728
17,RRIRRRPPRLPRPRPRPTGGPRP,0.296
18,RRIRRRPPRLPRPRPRPTGKPRP,0.901
19,RRIRRRPPRLPRPRPRPTGWPRP,0.766
20,RRIRRRPPRLPRPRPRPTIDPRP,-0.0234
21,RRIRRRPPRLPRPRPRPTIMPRP,0.0494
22,RRIRRRPPRLPRPRPRPTKAPRP,0.372
23,RRIRRRPPRLPRPRPRPTKDPRP,0.209
24,RRIRRRPPRLPRPRPRPTLGPRP,0.138
25,RRIRRRPPRLPRPRPRPTMAPRP,0.392

row,Sequence,shrunken log2 fold change
1,RRIRRRPPRLPRPRPRPTPFPRP,0.632
2,RRIRRRPPRLPRPRPRPTPVPRP,0.969
3,RRIRRRPPRLPRPRPRPTQFPRP,0.384
4,RRIRRRPPRLPRPRPRPTQGPRP,0.935
5,RRIRRRPPRLPRPRPRPTREPRP,0.892
6,RRIRRRPPRLPRPRPRPTRPPRP,1.02
7,RRIRRRPPRLPRPRPRPTSEPRP,0.372
8,RRIRRRPPRLPRPRPRPTSPPRP,0.225
9,RRIRRRPPRLPRPRPRPTSRPRP,0.312
10,RRIRRRPPRLPRPRPRPTSWPRP,1.52
11,RRIRRRPPRLPRPRPRPTSYPRP,-0.0452
12,RRIRRRPPRLPRPRPRPTTFPRP,3.05
13,RRIRRRPPRLPRPRPRPTVIPRP,-0.168
14,RRIRRRPPRLPRPRPRPTVVPRP,0.0199
15,RRIRRRPPRLPRPRPRPTYFPRP,0.0897
16,RRIRRRPPRLPRPRPRPVADPRP,0.228
17,RRIRRRPPRLPRPRPRPVAFPRP,0.383
18,RRIRRRPPRLPRPRPRPVAGPRP,0.453
19,RRIRRRPPRLPRPRPRPVAQPRP,0.324
20,RRIRRRPPRLPRPRPRPVCVPRP,0.359
21,RRIRRRPPRLPRPRPRPVDSPRP,0.127
22,RRIRRRPPRLPRPRPRPVHDPRP,-0.305
23,RRIRRRPPRLPRPRPRPVHIPRP,-0.0107
24,RRIRRRPPRLPRPRPRPVHMPRP,2.19
25,RRIRRRPPRLPRPRPRPVKMPRP,0.101

row,Sequence,shrunken log2 fold change
1,RRIRRRPPRLPRPRPRPVKRPRP,0.457
2,RRIRRRPPRLPRPRPRPVMWPRP,0.0562
3,RRIRRRPPRLPRPRPRPVNNPRP,-0.12
4,RRIRRRPPRLPRPRPRPVPNPRP,0.353
5,RRIRRRPPRLPRPRPRPVQQPRP,0.213
6,RRIRRRPPRLPRPRPRPVRWPRP,0.825
7,RRIRRRPPRLPRPRPRPVTLPRP,0.0854
8,RRIRRRPPRLPRPRPRPVTQPRP,0.197
9,RRIRRRPPRLPRPRPRPVTTPRP,0.48
10,RRIRRRPPRLPRPRPRPVTYPRP,-0.0642
11,RRIRRRPPRLPRPRPRPVWCPRP,0.273
12,RRIRRRPPRLPRPRPRPVYKPRP,0.0922
13,RRIRRRPPRLPRPRPRPVYTPRP,0.0292
14,RRIRRRPPRLPRPRPRPWDCPRP,-0.033
15,RRIRRRPPRLPRPRPRPWDRPRP,0.26
16,RRIRRRPPRLPRPRPRPWERPRP,-0.0262
17,RRIRRRPPRLPRPRPRPWFDPRP,-0.064
18,RRIRRRPPRLPRPRPRPWFFPRP,0.08
19,RRIRRRPPRLPRPRPRPWGFPRP,0.315
20,RRIRRRPPRLPRPRPRPWIFPRP,0.0818
21,RRIRRRPPRLPRPRPRPWKFPRP,-0.0344
22,RRIRRRPPRLPRPRPRPWLAPRP,0.35
23,RRIRRRPPRLPRPRPRPWNEPRP,-0.208
24,RRIRRRPPRLPRPRPRPWPHPRP,-0.0473
25,RRIRRRPPRLPRPRPRPWQAPRP,0.0707
